To fix the notation:
B1: humanised VH variant H26 in combination with L2 light chain (antibody, human IgG1, kappa, name in Kabat numbering, V domains shown)
VH: QVQLVQSGAEVKKPGASVKVSCKGSGFNIKVYYVHWLRQAPGKGLEWIGRIDPENGETIYTPKFQDRVTLTEDTSSDTAYMELSSLRSEDTAVYYCVSSGYWGQGTLVTVSS
VL: DIVMTQSPLSLPVTPGEPASISCRSSKSLLHRNGITYLYWYLQKPGQSPQLLIYQMSNLASGVPDRFSSSGSGTDFTLKISRVEAEDVGVYYCAQNLELWTFGQGTKVEIKR
notes: Kabat numbering
B2: humanised VH variant H29 in combination with L2 light chain (antibody, human IgG1, kappa, name in Kabat numbering)
heavy: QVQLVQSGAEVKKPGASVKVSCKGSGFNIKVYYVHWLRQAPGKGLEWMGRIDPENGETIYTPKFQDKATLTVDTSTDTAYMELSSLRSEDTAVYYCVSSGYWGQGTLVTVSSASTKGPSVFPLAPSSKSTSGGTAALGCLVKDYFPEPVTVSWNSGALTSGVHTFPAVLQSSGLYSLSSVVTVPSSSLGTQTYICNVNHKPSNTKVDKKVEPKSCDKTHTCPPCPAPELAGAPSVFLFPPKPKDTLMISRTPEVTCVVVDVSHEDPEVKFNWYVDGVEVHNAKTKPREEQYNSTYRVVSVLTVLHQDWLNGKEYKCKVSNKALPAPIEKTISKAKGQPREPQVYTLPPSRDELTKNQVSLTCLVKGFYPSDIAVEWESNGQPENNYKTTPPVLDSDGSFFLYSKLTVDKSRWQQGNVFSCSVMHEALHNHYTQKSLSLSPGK
light: DIVMTQSPLSLPVTPGEPASISCRSSKSLLHRNGITYLYWYLQKPGQSPQLLIYQMSNLASGVPDRFSSSGSGTDFTLKISRVEAEDVGVYYCAQNLELWTFGQGTKVEIKRTVAAPSVFIFPPSDEQLKSGTASVVCLLNNFYPREAKVQWKVDNALQSGNSQESVTEQDSKDSTYSLSSTLTLSKADYEKHKVYACEVTHQGLSSPVTKSFNRGEC
notes: Kabat numbering
B3: humanised VH variant H24 in combination with L2 light chain (antibody, human IgG1, kappa, name in Kabat numbering, V domains shown)
VH: B1 VH with I48M, L70M, D77N
VL: B1 VL
notes: Kabat numbering
B4: humanised VH variant H21 in combination with L2 light chain (antibody, human IgG1, kappa, name in Kabat numbering, V domains shown)
VH: B1 VH with A40L, I48M, L70M, S76T
VL: B1 VL
B5: humanised VH variant H23 in combination with L2 light chain (antibody, human IgG1, kappa, name in Kabat numbering, V domains shown)
VH: B1 VH with L70M, S76T
VL: B1 VL
notes: Kabat numbering
B6: humanised VH variant H25 in combination with L2 light chain (antibody, human IgG1, kappa, name in Kabat numbering, V domains shown)
VH: B1 VH with S76T
VL: B1 VL
notes: Kabat numbering
B7: humanised VH variant H27 in combination with L2 light chain (antibody, human IgG1, kappa, name in Kabat numbering, V domains shown)
VH: B1 VH with K13E, I48M, R67K, V68A, L70M, E72V, S76T
VL: B1 VL
notes: Kabat numbering
B8: humanised VH variant H28 in combination with L2 light chain (antibody, human IgG1, kappa, name in Kabat numbering)
heavy: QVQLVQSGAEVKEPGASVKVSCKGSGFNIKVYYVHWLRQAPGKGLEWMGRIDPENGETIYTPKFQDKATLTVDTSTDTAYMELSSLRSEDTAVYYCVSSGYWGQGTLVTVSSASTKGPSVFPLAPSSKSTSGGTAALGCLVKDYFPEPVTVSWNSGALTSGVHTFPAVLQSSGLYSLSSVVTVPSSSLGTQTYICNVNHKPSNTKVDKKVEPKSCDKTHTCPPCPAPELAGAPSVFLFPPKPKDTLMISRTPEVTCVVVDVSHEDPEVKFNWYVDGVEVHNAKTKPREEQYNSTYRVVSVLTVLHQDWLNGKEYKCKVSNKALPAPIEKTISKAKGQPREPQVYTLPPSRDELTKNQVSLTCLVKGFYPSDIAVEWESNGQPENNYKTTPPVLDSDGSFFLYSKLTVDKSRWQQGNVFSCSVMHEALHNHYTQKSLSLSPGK
light: B2 light
notes: Kabat numbering
B9: humanised de-immunised construct H48L17 (antibody, name in Kabat numbering, V domains shown)
VH: B1 VH with K13E, K30H, A40L, G42E, R67K, V68A, E72V, S76T
VL: DIVMTQSPLSNPVTPGEPASISCRSSKSLLHRNGITYLYWYLQKPGQSPQLLIYQMSHLASGVPDRFSSSGSGTDFTLKISRVEAEDVGVYYCAQNLELWTFGQGTKVEIK
B10: humanised de-immunised construct H49L17 (antibody, name in Kabat numbering, V domains shown)
VH: B1 VH with K13E, V31T, A40L, G42E, R67K, V68A, E72V, S76T
VL: B9 VL
B11: humanised antibody H11L2 (antibody, human IgG1, kappa, name in Kabat numbering)
heavy: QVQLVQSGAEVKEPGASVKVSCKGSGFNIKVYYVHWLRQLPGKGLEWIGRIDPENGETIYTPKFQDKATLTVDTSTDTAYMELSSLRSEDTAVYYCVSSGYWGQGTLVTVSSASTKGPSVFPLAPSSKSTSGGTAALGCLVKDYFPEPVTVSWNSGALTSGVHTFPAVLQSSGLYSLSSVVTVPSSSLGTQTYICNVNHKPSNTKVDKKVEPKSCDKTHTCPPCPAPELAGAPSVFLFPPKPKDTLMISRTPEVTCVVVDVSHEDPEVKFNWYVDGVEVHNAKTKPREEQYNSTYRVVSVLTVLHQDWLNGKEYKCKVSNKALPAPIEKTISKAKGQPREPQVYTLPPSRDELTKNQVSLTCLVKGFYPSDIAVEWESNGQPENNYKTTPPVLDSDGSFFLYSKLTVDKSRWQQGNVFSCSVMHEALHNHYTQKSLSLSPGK
light: B2 light
notes: Human IgG1 Fc mutated, human kappa
B12: humanised antibody H11L12 (antibody, human IgG1, kappa, name in Kabat numbering)
heavy: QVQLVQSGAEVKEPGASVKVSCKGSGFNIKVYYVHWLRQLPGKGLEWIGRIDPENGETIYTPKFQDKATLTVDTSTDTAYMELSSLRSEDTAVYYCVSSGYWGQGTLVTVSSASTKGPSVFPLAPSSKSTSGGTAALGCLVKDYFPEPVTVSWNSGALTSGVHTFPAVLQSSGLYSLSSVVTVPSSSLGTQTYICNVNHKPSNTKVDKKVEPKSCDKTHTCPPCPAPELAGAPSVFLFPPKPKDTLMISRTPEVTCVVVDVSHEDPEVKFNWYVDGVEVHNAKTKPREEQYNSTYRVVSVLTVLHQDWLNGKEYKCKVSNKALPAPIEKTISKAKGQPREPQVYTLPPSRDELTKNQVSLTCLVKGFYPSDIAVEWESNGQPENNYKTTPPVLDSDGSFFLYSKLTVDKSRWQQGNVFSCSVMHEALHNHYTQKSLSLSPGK
light: B2 light with L11N, S48P, S69G
B13: humanised antibody H11L10 (antibody, human IgG1, kappa, name in Kabat numbering)
heavy: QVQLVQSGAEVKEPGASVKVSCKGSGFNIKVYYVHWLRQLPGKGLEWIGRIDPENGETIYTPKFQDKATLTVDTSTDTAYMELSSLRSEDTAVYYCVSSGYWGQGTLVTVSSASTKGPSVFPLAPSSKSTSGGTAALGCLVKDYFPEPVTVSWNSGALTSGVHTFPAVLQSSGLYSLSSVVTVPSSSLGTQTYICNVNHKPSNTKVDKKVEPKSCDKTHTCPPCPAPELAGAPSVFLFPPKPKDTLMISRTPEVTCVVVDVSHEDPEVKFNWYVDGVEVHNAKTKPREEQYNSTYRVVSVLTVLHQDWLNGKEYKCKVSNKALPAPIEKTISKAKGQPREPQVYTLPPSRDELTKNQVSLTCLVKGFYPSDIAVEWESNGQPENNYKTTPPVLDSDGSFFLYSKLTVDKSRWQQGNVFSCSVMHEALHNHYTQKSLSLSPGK
light: B2 light with P8A
B14: humanised antibody H11L13 (antibody, human IgG1, kappa, name in Kabat numbering)
heavy: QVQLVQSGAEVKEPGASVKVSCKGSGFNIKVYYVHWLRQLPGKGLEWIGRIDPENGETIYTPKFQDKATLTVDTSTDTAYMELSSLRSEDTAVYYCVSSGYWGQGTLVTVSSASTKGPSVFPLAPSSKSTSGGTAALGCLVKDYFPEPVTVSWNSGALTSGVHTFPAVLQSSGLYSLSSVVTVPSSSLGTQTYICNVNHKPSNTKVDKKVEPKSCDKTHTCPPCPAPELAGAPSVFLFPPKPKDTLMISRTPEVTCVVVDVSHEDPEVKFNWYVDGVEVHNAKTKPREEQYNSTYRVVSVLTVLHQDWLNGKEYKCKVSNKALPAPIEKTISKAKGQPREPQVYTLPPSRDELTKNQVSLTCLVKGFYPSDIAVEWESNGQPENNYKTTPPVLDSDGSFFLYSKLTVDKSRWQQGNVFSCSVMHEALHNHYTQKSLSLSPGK
light: B2 light with P8A, S48P, S69G
B15: humanised VL variant L7 in combination with H11 (antibody, human IgG1, kappa, name in Kabat numbering, V domains shown)
VH: B1 VH with K13E, A40L, R67K, V68A, E72V, S76T
VL: B1 VL with S48P
notes: Kabat numbering
B16: humanised VL variant L8 in combination with H11 (antibody, human IgG1, kappa, name in Kabat numbering)
heavy: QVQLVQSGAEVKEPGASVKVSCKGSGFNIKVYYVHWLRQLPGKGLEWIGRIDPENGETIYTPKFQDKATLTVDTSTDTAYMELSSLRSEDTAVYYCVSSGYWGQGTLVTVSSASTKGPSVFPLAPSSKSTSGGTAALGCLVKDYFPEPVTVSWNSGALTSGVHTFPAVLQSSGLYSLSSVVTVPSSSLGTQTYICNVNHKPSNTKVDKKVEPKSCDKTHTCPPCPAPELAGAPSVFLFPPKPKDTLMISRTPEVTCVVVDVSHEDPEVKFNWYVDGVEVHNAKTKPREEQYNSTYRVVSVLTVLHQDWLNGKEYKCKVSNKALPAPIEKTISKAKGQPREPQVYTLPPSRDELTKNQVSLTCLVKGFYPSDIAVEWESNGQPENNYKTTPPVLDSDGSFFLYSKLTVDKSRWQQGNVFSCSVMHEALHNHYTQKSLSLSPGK
light: B2 light with S48P, S68T, S69G
notes: Kabat numbering
B17: humanised VL variant L6 in combination with H11 (antibody, human IgG1, kappa, name in Kabat numbering)
heavy: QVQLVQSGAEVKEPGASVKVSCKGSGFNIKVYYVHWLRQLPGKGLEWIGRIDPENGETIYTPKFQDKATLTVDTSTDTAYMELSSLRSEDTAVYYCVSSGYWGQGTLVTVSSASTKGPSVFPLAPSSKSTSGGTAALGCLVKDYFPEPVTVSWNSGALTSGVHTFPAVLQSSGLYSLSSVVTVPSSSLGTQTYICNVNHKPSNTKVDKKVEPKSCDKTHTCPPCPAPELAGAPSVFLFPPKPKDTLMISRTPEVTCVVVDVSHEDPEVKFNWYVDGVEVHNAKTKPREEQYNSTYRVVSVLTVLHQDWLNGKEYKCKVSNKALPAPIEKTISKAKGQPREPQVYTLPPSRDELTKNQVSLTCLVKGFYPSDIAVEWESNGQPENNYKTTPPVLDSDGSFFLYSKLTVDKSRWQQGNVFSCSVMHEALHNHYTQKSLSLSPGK
light: B2 light with S48P, S68T, S69G, Q104G, V108L
notes: Kabat numbering
B18: humanised VL variant L4 in combination with H11 (antibody, human IgG1, kappa, name in Kabat numbering, V domains shown)
VH: B1 VH with K13E, A40L, R67K, V68A, E72V, S76T
VL: B1 VL with S68T, S69G
notes: Kabat numbering

Changes are numbered by the printed parent chain.

For the first assay, the target named is T1, human β-amyloid (1-40) peptide (human, UniProt P05067 672-711).
T1 construct: domain: β-amyloid (1-40); Used free in solution, coated on plates, or N- or C-terminally biotinylated, as told under assay; also called Aβ peptide (1-40); Aβ1-40
T1 sequence (P05067 672-711 limits assumed): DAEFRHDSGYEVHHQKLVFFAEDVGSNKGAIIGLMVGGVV
The assay is described as follows: ELISA on human Aβ peptide (1-40).
For B1, the binding result is “binds”.
As to B2, the binding result is recorded as “binds”.
Same read-out and setting: in the case of B3 it was “binds”; in that of B4, “binds”.
Still for that read-out and setting: the entry for B5 is “binds”.
Same read-out and setting: the entry for B6 is “binds”; for B7 it is “binds”; for B8 it is “binds”.

A further assay addresses T1, human β-amyloid (1-40) peptide. The assay is described as follows: SPR (Biacore T100), antibody captured on anti-human IgG, beta amyloid (1-40), 37°C. As for the experimental part:
Anti-human IgG (Biacore BR-1008-39) was coupled to a CM5 biosensor chip by primary amine coupling. The anti-beta amyloid antibodies were captured on this surface. Beta amyloid (1-40) was then passed over at 256, 64, 16, 4 and 1 nM, with a 0 nM (ie buffer alone passed over the captured antibody surface) used for double referencing. […] The data was analysed using the 1:1 model inherent to the T100. The run was carried out at 25° C. and 37° C. using HBS-EP as the running buffer.
From this panel some constructs were also assessed for binding kinetics at physiological temperature.
As for B9, the Kd came out at 4.72 nM.
On the same count and under the same terms, the figure for B10 is 4.21 nM.

For the next assay the target is unchanged. As to the kind of experiment: competition ELISA, antibody pre-incubated with biotinylated β-amyloid 1-40; competitor immobilised mouse 6F6; Exp 1. As for the experimental part:
(§1) 6F6c and humanised antibodies H11L2, H11L9, H11L10, H11L12 and H11L13 were assessed for their ability to bind Aβ1-40 peptide in solution and inhibit the interaction of human Aβ1-40 peptide with mouse 6F6 monoclonal antibody in a competition ELISA. A constant concentration of biotinylated β-amyloid 1-40 was pre-incubated with serial diluted amounts of humanised 6F6 antibody variants. The mixture including complexed and free amyloid was then added to wells containing immobilised mouse 6F6 monoclonal antibody and incubated for 15 minutes at room temperature. Plates were washed and the amount of free β-amyloid that was still available for binding the immobilised parental 6F6 monoclonal antibody was then detected using streptavidin-HRP conjugate.
(§2) All humanised variants were able to effectively compete for binding to 6F6 parental monoclonal antibody with very similar IC50 values.
As to B11, the IC50 was determined as 0.862 µg/mL.
For B12, the IC50 came out at 0.561 µg/mL.
For the molecule B13, the half-maximal inhibitory concentration (IC50) amounted to 0.622 µg/mL.
Same read-out and setting: in the case of B14 it was 0.616 µg/mL.

For the next assay the target is unchanged. As to the kind of experiment: SPR (Biacore T100), antibody captured on protein A, human β-amyloid 1-40 at 256-2 nM, 25°C, mean of three experiments. The protocol: The affinity of selected heavy and light chain combinations was determined using a Biacore T100 instrument. Three independent experiments were performed using humanised antibody immobilised via protein A surface Biacore chips and injection of β-amyloid 1-40 peptides. The chimeric molecule of 6F6 served as a reference molecule. For this Protein A was immobilised on a CM5 chip by primary amine coupling in accordance with manufactures recommendations. Anti-β-amyloid antibodies were captured on this surface and after a period of stabilisation human β-amyloid 1-40 was passed over at concentrations 256-2 nM in halving dilutions. A buffer injection over the captured antibody surface was used to double reference the data set in accordance with Biacore best practice. […] The work was carried out in HBS-EP at 25° C. Results are summarised in Table 13 as the mean of all three experiments.
B11: the Kd amounted to 9.57 nM.
Still for that read-out and setting: in the case of B12 it was 6.95 nM; in that of B13, 5.57 nM; in that of B14, 7.41 nM.

Another assay has the same target. As to the kind of experiment: competition ELISA, antibody pre-incubated with biotinylated β-amyloid 1-40; competitor immobilised mouse 6F6; Exp 2. The protocol:
as §1, §2
In turn, B11 returned an IC50 of 0.578 µg/mL.
Same read-out and setting: in the case of B12 it was 0.549 µg/mL; in that of B14, 0.531 µg/mL.

A further assay has the same target. As to the kind of experiment: ELISA on human Aβ peptide (1-40), in combination with H11.
As for B15, the binding result is listed as “binds”.
On the same count and under the same terms, the entry for B16 is “binds”; for B17 it is “binds”.
Same read-out and setting: the entry for B18 is “binds”.
